Article PMC10698503, “Phosphatase specificity principles uncovered by MRBLE:Dephos and global substrate identification” (Molecular Systems Biology, 2023)

Experiments:
Venus-B55 = assay: Affinity purification (pulldown) of YFP/Venus-B55 from mitotic cells, label-free LC-MS/MS; format: binding, human; settings: for log2 ratio [Venus-B55/Venus]: enrichment in Venus-B55 pulldown over Venus control, from 3 replicates each; for log2 IBAQ [Venus-B55 1] / log2 IBAQ [Venus-B55 2] / log2 IBAQ [Venus-B55 3]: pulldown of Venus-B55 from mitotic cells, label-free LC-MS/MS, log2 IBAQ of co-purified protein; for log2 IBAQ [Venus-B55 1]: replicate 1; for log2 IBAQ [Venus-B55 2]: replicate 2; for log2 IBAQ [Venus-B55 3]: replicate 3
Excerpt: (§1) We defined interactomes of PP1γ and B55α during mitosis using affinity purification of YFP‐tagged subunits and also proximity‐dependent ligation using miniTurbo to capture interactions at mitotic exit (Appendix Fig S8) (Branon et al, [2018]; Sears et al, [2019]). […] These identified proteins can constitute both regulators and substrates. […] To understand how these protein interactions might shape dephosphorylation, we first aimed at generating interactome networks and overlay regulated sites. We integrated interactomes and information from the STRING database (Szklarczyk et al, [2023]) with our regulated phosphorylation sites to generate a network of complexes and dephosphorylation sites (Fig 4C and Appendix Fig S9A). For PP1, we also integrated information on known and predicted RVxF motifs (Smith et al, [2019]). […] As an example, CASC5 (KNL1) could scaffold PP1 dephosphorylation of CENPC S261, a phosphorylation site in a nuclear localization sequence. In agreement with previous work, PP2A‐B55 regulated dephosphorylation of several nucleoporins at mitotic exit consistent with Nup153 and TPR being present in the interactomes (Cundell et al, [2016]).
(§2) PP1 and B55 cDNAs were cloned into modified versions of pcDNA5/FRT/TO (Invitrogen) to make N‐terminal fusions to YFP, BioID, or TurboID. Stable cell lines were generated into HeLa/FRT/TRex cells (kind gift from S. Taylor), and for YFP affinity, purification cells were synchronized with thymidine and released into nocodazole‐containing media to arrest them in mitosis. Cells were resuspended in lysis buffer (50 mM NaCl, 50 mM Tris 7,4, 1 mM EDTA, 0.1% NP40, 1 mM DTT, and protease inhibitor cocktail), and following sonication, the lysate was clarified by centrifugation. Cell lysate was incubated with GFP‐Trap beads (Chromotek) for 1 h, washed 3 × 1 ml with lysis buffer, and resuspended in SDS–PAGE loading buffer.
(§3) The Q‐Exactive Plus was set to perform an Orbitrap MS1 scan (R = 70 K; AGC target = 1e6) from 350 to 1,500 m/z, followed by HCD MS2 spectra on the 10 most abundant precursor ions detected by Orbitrap scanning (R = 17.5 K; AGC target = 1e5; max ion time = 50 ms) before repeating the cycle. Precursor ions were isolated for HCD by quadrupole isolation at width = 1 m/z and HCD fragmentation at 26 normalized collision energy (NCE). Charge state 2, 3, and 4 ions were selected for MS2. Precursor ions were added to a dynamic exclusion list ± 20 ppm for 15 s. […] Static modifications included carbamidomethylcysteine and variable modifications included oxidized methionine. […] Missing values were imputed from a normal distribution in Perseus to enable statistical analysis and visualization by volcano plot (Tyanova et al, [2016]). Statistical analysis was carried out in Perseus by two‐tailed Student's t‐test.

Venus-PP1 = assay: Affinity purification (pulldown) of YFP/Venus-PP1 from mitotic cells, label-free LC-MS/MS; format: binding, human; settings: for B55 or PP1?: assignment of the co-purified protein as interactor of Venus-B55 and/or Venus-PP1 (both pulldowns); for log2 ratio [Venus-PP1/Venus]: enrichment in Venus-PP1 pulldown over Venus control, from 3 replicates each; for log2 IBAQ [Venus-PP1 1] / log2 IBAQ [Venus-PP1 2] / log2 IBAQ [Venus-PP1 3]: pulldown of Venus-PP1 from mitotic cells, label-free LC-MS/MS, log2 IBAQ of co-purified protein; for log2 IBAQ [Venus-PP1 1]: replicate 1; for log2 IBAQ [Venus-PP1 2]: replicate 2; for log2 IBAQ [Venus-PP1 3]: replicate 3
Excerpt: as §1, §2, §3

Molecule | log2 ratio [Venus-B55/Venus] (Venus-B55) | log2 IBAQ [Venus-B55 1] (Venus-B55) | log2 IBAQ [Venus-B55 2] (Venus-B55) | log2 IBAQ [Venus-B55 3] (Venus-B55) | B55 or PP1? (Venus-PP1) | log2 ratio [Venus-PP1/Venus] (Venus-PP1) | log2 IBAQ [Venus-PP1 1] (Venus-PP1) | log2 IBAQ [Venus-PP1 2] (Venus-PP1) | log2 IBAQ [Venus-PP1 3] (Venus-PP1)
SF01_HUMAN (protein, UniProt Q15637 2-639, looked up) Splicing factor 1: ATGANATPLDFPSKKRKRSRWNQDTMEQKTVIPGMPTVIPPGLTREQERAYIVQLQIEDLTRKLRTGDLGIPPNPEDRSPSPEPIYNSEGKRLNTREFRTRKKLEEERHNLITEMVALNPDFKPPADYKPPATRVSDKVMIPQDEYPEINFVGLLIGPRGNTLKNIEKECNAKIMIRGKGSVKEGKVGRKDGQMLPGEDEPLHALVTANTMENVKKAVEQIRNILKQGIETPEDQNDLRKMQLRELARLNGTLREDDNRILRPWQSSETRSITNTTVCTKCGGAGHIASDCKFQRPGDPQSAQDKARMDKEYLSLMAELGEAPVPASVGSTSGPATTPLASAPRPAAPANNPPPPSLMSTTQSRPPWMNSGPSESRPYHGMHGGGPGGPGGGPHSFPHPLPSLTGGHGGHPMQHNPNGPPPPWMQPPPPPMNQGPHPPGHHGPPPMDQYLGSTPVGSGVYRLHQGKGMMPPPPMGMMPPPPPPPSGQPPPPPSGPLPPWQQQQQQPPPPPPPSSSMASSTPLPWQQNTTTTTTSAGTGSIPPWQQQQAAAAASPGAPQMQGNPTMVPLPPGVQPPLPPGAPPPPPPPPPGSAGMMYAPPPPPPPPMDPSNFVTMMGMGVAGMPPFGMPPAPPPPPPQN | 3.74 | 18.20 | 19.35 | 19.45 | B55/PP1 | 4.15 | 19.13 | 19.69 | 20.57
GAR1_HUMAN (protein, UniProt Q9NY12 1-217, looked up) H/ACA ribonucleoprotein …: MSFRGGGRGGFNRGGGGGGFNRGGSSNHFRGGGGGGGGGNFRGGGRGGFGRGGGRGGFNKGQDQGPPERVVLLGEFLHPCEDDIVCKCTTDENKVPYFNAPVYLENKEQIGKVDEIFGQLRDFYFSVKLSENMKASSFKKLQKFYIDPYKLLPLQRFLPRPPGEKGPPRGGGRGGRGGGRGGGGRGGGRGGGFRGGRGGGGGGFRGGRGGGFRGRGH | 3.89 | 18.68 | 18.13 | 17.35 | B55/PP1 | 5.49 | 19.45 | 19.86 | 24.60
EBP2_HUMAN (protein, UniProt Q99848 1-306, looked up) Probable rRNA-processing …: MDTPPLSDSESESDESLVTDRELQDAFSRGLLKPGLNVVLEGPKKAVNDVNGLKQCLAEFKRDLEWVERLDVTLGPVPEIGGSEAPAPQNKDQKAVDPEDDFQREMSFYRQAQAAVLAVLPRLHQLKVPTKRPTDYFAEMAKSDLQMQKIRQKLQTKQAAMERSEKAKQLRALRKYGKKVQTEVLQKRQQEKAHMMNAIKKYQKGFSDKLDFLEGDQKPLAQRKKAGAKGQQMRKGPSAKRRYKNQKFGFGGKKKGSKWNTRESYDDVSSFRAKTAHGRGLKRPGKKGSNKRPGKRTREKMKNRTH | 1.82 | 20.14 | 18.75 | 20.44 | B55/PP1 | 6.44 | 24.17 | 24.63 | 27.56
